Key:
Format in all cases: cell-based, human
[1] = tested on: PBMC cells obtained from mite allergic patients and non-allergics; assay: Ex vivo stimulation of PBMC: cytokine production (IFN-gamma, IL-9, IL-10, IL-17, IL-31)
Source text: (§1) This example relates to the further testing of immunogenicity of the proteins identified in Example 1. Their ability to react with IgE antibodies in HDM allergic individuals, to stimulate in vitro T cell proliferation of HDM allergic individuals and non-allergics, and to stimulate ex vivo cytokine production of HDM allergic individuals and non-allergics. The following tests were used: • Basophil Activation Test (BAT) was used as a predictive in vitro assay for indication of safety/immediate hypersensitivity reactions. BAT test was carried out using blood from HDM allergic individuals (n=14), and by use of different concentrations of test proteins or the major house dust mite allergens (Der p 1, Der f 1, Der p 2 or Der f 2, e.g. a concentration of 1, 10, 100 or 1000 ng/ml. • In vitro T cell reactivity determined in T cell lines obtained from HDM allergic individuals (n=30) and non-allergics (n=8): Determined by establishment of HDM specific T-cell lines according to standard methods. In short, PMBCs from HDM allergic donors were cultured for 3 weeks in the presence of house dust mite allergen extract. The responses to proteins at a concentration of 0.5 ug/ml or 2 ug/ml of the test protein or the major house dust mite allergens (Der p 1, Der f 1, Der p 2 or Der f 2) were assessed by proliferation in a standard 72 h T cell proliferation assay, as described in Henmar H et al., Clin Exp Immunol 2008; 153(3):316-23. […]. • Ex vivo stimulation of PBMC cells obtained from mite allergic patients (n=16) and non-allergics (n=6): Determined by measuring the production of the cytokines; IFN-gamma, IL-9, IL-10, IL-17 and IL-31 following stimulation with test protein in concentration up to 10 ug/ml. Freshly isolated PBMC 5×10^6/ml were cultured with a test protein for 5 days and cell supernatant were harvested and stored at −80° C. Cytokines of the supernatants were measured using ProcartaPlex Multiplex Immunoassays with MAGPIX Multiplex Reader according manufactory protocol.

[2] = tested on: basophils in whole blood from HDM allergic donors; assay: Basophil Activation Test (BAT); details: blood from HDM allergic individuals (n=14)
Protocol: Basophil Activation Test (BAT) was used as a predictive in vitro assay for indication of safety/immediate hypersensitivity reactions. The BAT assay is a widely used diagnostic test that is also used for evaluation of allergenicity of allergen derived components. In short: whole blood from HDM allergic donors was stimulated for 1 h with the proteins, and the increased expression of activation markers on the surface of basophils were measured by flow cytometry. The BAT test was carried out using different concentrations of the proteins and the allergens Der p 2 and Der p 1 was used as controls and tested in the same concentration rates.
as §1

[3] = tested on: T cell lines obtained from HDM allergic individuals and non-allergics; assay: In vitro T cell proliferation test in T cell lines (Example 3); details: 0.5 or 2 ug/ml, 72 h; for % responders of in-vitro T cell proliferation test, Allergic: T cell lines from HDM allergic individuals (n=30); for % responders of in-vitro T cell proliferation test, Non-allergics: T cell lines from non-allergics (n=8)
Source text: as §1

B1: A011: house dust mite protein; SEQ ID NO: 39 (Der f), 40 (Der p), 309 (Blo t) (protein)
chain: KSAPEGCFRAAVLDHVHQTDARHLSNTAKIIDLNFKVYEDAAALAKKQGADIIVFPENGLIYSILSREKADEFASDIPDAEVNACTLDSKFVYNRLACLAQKHQMFVVADLIDRKSCEELGINNVSDSCPADKKFLFNTAVLFDRQGKLLGRYHKMHLFGEISMNPPPKPELLVIDTELGRLGMQICFDMIFKTPGYLLAQENKFDTMLFPTWWFDESPMLSSSQYQMAWAFGNNVTLLASNIHRIEVGSRGSGIYVGPHRTLAAALYDDSVERLVLANVPIKPKETDQSACPLDSEIIEVPQQIPIPKSVKYHHQNLNLKDVTLLQLSSNESEVHLCHKGVCCQFEYRLAMKDQPQESWVDRVPLLANMLHYLTPEERYYLLIANRTRPGAYPWSEEFCAVVVCPSSRWNFGKMQKDCSKIGSNQELSSRFVHAKLRGKFSEDTAVYPSAVGSKNQLIYPENKWKFWKVNVPNEPEYFIELGAKDNSESRAMELGALVLYGRNYNRDPRYEQKALPIN
With B1 the “% HDM allergic individuals with cytokine production in ex-vivo T cell assay IL-5” value [1] was 25%, the “% HDM allergic individuals with cytokine production in ex-vivo T cell assay IL-9” value [1] was 6% and the “% HDM allergic individuals with cytokine production in ex-vivo T cell assay IL-10” value [1] was 13%. The “% HDM allergic individuals with cytokine production in ex-vivo T cell assay IL-13” value [1] was 19%, the “% HDM allergic individuals with cytokine production in ex-vivo T cell assay IL-17” value [1] was 6% and the “% HDM allergic individuals with cytokine production in ex-vivo T cell assay IL-31” value [1] was 6%. For the same molecule, the “% HDM allergic individuals with cytokine production in ex-vivo T cell assay INF-g” value [1] was 0%, the “% non-allergic individuals with cytokine production in ex-vivo T cell assay IL-5” value [1] was 0% and the “% non-allergic individuals with cytokine production in ex-vivo T cell assay IL-9” value [1] was 0%. For the same molecule, the “% non-allergic individuals with cytokine production in ex-vivo T cell assay IL-10” value [1] was 0%, the “% non-allergic individuals with cytokine production in ex-vivo T cell assay IL-13” value [1] was 0% and the “% non-allergic individuals with cytokine production in ex-vivo T cell assay IL-17” value [1] was 0%. For the same molecule, the “% non-allergic individuals with cytokine production in ex-vivo T cell assay IL-31” value [1] was 0%, the “% non-allergic individuals with cytokine production in ex-vivo T cell assay INF-g” value [1] was 17% and the “# of individuals of 14 with positive BAT test” value ([2]; 1 ng/ml) was 0. For the same molecule, the “# of individuals of 14 with positive BAT test” value ([2]; 10 ng/ml) was 0, the “# of individuals of 14 with positive BAT test” value ([2]; 100 ng/ml) was 0 and the “# of individuals of 14 with positive BAT test” value ([2]; 1000 ng/ml) was 1. The “% responders of in-vitro T cell proliferation test, Allergic” value [3] was 64% and the “% responders of in-vitro T cell proliferation test, Non-allergics” value (from here on “% responders … Non-allergics”) [3] was 13%.

B2: A012: house dust mite protein; SEQ ID NO: 22 (Der p), 38 (Der f), 310 (Blo t) (protein)
chain: QSRDRNDKPYRIVCYWGTWAFYRPASGKFQAENVNPNLCTHIMYGFAKLQNNKIALYDPDLDDGDEDWNSGLQWGHGMIRRMVNLRTYNPHLTTMISLGGWNEGSDKYSIMVRDPASRKIFIQSVLHLLAEFDLDGLDFDWEYPAMQASGDSDRKPGRAEDKEDFVTLLRELHEAFQPHGYVLSSAVSAGKPTIDRAYNIPEVSKYLDFINLMSYDYHGGWESHTGHNAPLNSYKNANELDKEFTVTYSVEYWLNHGVDPKKLVLGIPLYGRTFTLAGSEHGIGAPTIGKGGESGTITRTIGMLGYNEICTMIKQGWQLYRDEIERIPYAVHANQWIGYDDRESVNEKLNLLMAKHLGGAMVWSIDTDDFVGNCVGVKYPLLRSISKKLNNVDGPDPDIKRYHYHTSTAKPHTDGTTSTHHDHKTTTTKHHKTTQPHHKTTQPHHTQTITTTTERPHGKFQCHQAGFFADPENPRKFHQCVDFGGHLKDYEFMCGEGTHYDEKLHICVR
B2 was tested, and the “% HDM allergic individuals with cytokine production in ex-vivo T cell assay IL-5” value [1] was 69%, the “% HDM allergic individuals with cytokine production in ex-vivo T cell assay IL-9” value [1] was 25% and the “% HDM allergic individuals with cytokine production in ex-vivo T cell assay IL-10” value [1] was 19%. The “% HDM allergic individuals with cytokine production in ex-vivo T cell assay IL-13” value [1] was 44%, the “% HDM allergic individuals with cytokine production in ex-vivo T cell assay IL-17” value [1] was 19% and the “% HDM allergic individuals with cytokine production in ex-vivo T cell assay IL-31” value [1] was 0%. For the same molecule, the “% HDM allergic individuals with cytokine production in ex-vivo T cell assay INF-g” value [1] was 0%, the “% non-allergic individuals with cytokine production in ex-vivo T cell assay IL-5” value [1] was 0% and the “% non-allergic individuals with cytokine production in ex-vivo T cell assay IL-9” value [1] was 0%. The “% non-allergic individuals with cytokine production in ex-vivo T cell assay IL-10” value [1] was 67%, the “% non-allergic individuals with cytokine production in ex-vivo T cell assay IL-13” value [1] was 0% and the “% non-allergic individuals with cytokine production in ex-vivo T cell assay IL-17” value [1] was 33%. The “% non-allergic individuals with cytokine production in ex-vivo T cell assay IL-31” value [1] was 0%, the “% non-allergic individuals with cytokine production in ex-vivo T cell assay INF-g” value [1] was 17% and the “# of individuals of 14 with positive BAT test” value ([2]; 1 ng/ml) was 0. The “# of individuals of 14 with positive BAT test” value ([2]; 10 ng/ml) was 0, the “# of individuals of 14 with positive BAT test” value ([2]; 100 ng/ml) was 0 and the “# of individuals of 14 with positive BAT test” value ([2]; 1000 ng/ml) was 0. For the same molecule, the “% responders of in-vitro T cell proliferation test, Allergic” value [3] was 39% and the “% responders … Non-allergics” value [3] was 13%.

B3: A013: house dust mite protein; SEQ ID NO: 36 (Der f), 37 (Der p), 311 (Blo t) (protein)
chain: DTPANCTYEDIKGLWLFEETEPIKDRWEKCPEHQQQREKYSKKIFIRLDFPNVAVDKFGNIGEWTMIYNQGFEVKINYRKYFAFSAYERKSENNVLSYCHKTQPGWSHDVLGNNWACYVGHKVNNWNDDDVSKTTTVGAEKFPVKQHSERELYLQNINVEHILSQKHIDHLNSQQKSWKAIVYPDLQSKSIEHLIQMAGGRKSRIINRPKPLRATEQQKQLARSLPESFDWRNLNGIDYVSPVRDQGKCGSCYTFASMAMLESRIRIQTNNTFKPIFSTQEVVDCSEYSQGCDGGFSYLIAGKYAQDFGVIDESCYPYKGVTGKCQNQQNFNQTNEKCKQRTYTIDYKYVGGYFGACNEEAMQIELVQNGPIAVGFEVYGDFFGYSEGIYSHQPSNESNDQHQQIKAEFNPFEMTNHAVLIVGYGKDKKTGEKYWIVKNSWGKQWGMDGYFWMRRGTDECAIESLAMAATPIPN
B3 was tested, and the “% HDM allergic individuals with cytokine production in ex-vivo T cell assay IL-5” value [1] was 50%, the “% HDM allergic individuals with cytokine production in ex-vivo T cell assay IL-9” value [1] was 25% and the “% HDM allergic individuals with cytokine production in ex-vivo T cell assay IL-10” value [1] was 38%. For the same molecule, the “% HDM allergic individuals with cytokine production in ex-vivo T cell assay IL-13” value [1] was 38%, the “% HDM allergic individuals with cytokine production in ex-vivo T cell assay IL-17” value [1] was 6% and the “% HDM allergic individuals with cytokine production in ex-vivo T cell assay IL-31” value [1] was 0%. For the same molecule, the “% HDM allergic individuals with cytokine production in ex-vivo T cell assay INF-g” value [1] was 0%, the “% non-allergic individuals with cytokine production in ex-vivo T cell assay IL-5” value [1] was 0% and the “% non-allergic individuals with cytokine production in ex-vivo T cell assay IL-9” value [1] was 0%. The “% non-allergic individuals with cytokine production in ex-vivo T cell assay IL-10” value [1] was 0%, the “% non-allergic individuals with cytokine production in ex-vivo T cell assay IL-13” value [1] was 0% and the “% non-allergic individuals with cytokine production in ex-vivo T cell assay IL-17” value [1] was 0%. For the same molecule, the “% non-allergic individuals with cytokine production in ex-vivo T cell assay IL-31” value [1] was 0%, the “% non-allergic individuals with cytokine production in ex-vivo T cell assay INF-g” value [1] was 0% and the “# of individuals of 14 with positive BAT test” value ([2]; 1 ng/ml) was 0. The “# of individuals of 14 with positive BAT test” value ([2]; 10 ng/ml) was 0, the “# of individuals of 14 with positive BAT test” value ([2]; 100 ng/ml) was 0 and the “# of individuals of 14 with positive BAT test” value ([2]; 1000 ng/ml) was 0. For the same molecule, the “% responders of in-vitro T cell proliferation test, Allergic” value [3] was 18% and the “% responders … Non-allergics” value [3] was 13%.

Reference: patent US10556936B2, “Immunogenic proteins and fragments thereof from allergenic mites” (ALK-ABELLÓ A/S, priority 2016, dated 2020)
